Drawing on patent publication US20240084003A1, this text covers Cell mean fluorescence intensity, Cell mean fluorescence density and Maximum mean fluorescence intensity for 3 substances.

Assay [1] addresses human CD22 (full length, on cells) (human) (UniProt P20273). Description: FACS on CHO-K1-human CD22 clone 2C4.
Assay [2] has the same target. Description: FACS on CHO-K1-human CD22 clone 1D9.
The target is the same in assay [3]. The assay is described as follows: FACS on Raji cells, control of the m971 row.
The target is the same in assay [4]. The assay is described as follows: FACS on Raji cells, control of the HA22 row.
For assay [5] the target is unchanged. Description: FACS on CHO-K1-human CD22 clone 1G5.
Assay [6] concerns the target monkey CD22 on HEK293T-monkey CD22 cells (monkey). Description: FACS, HEK293T-monkey CD22 cells. (In general: A flow cytometer gives signals particle by particle.)
In assay [7] the target is human CD22, endogenous on Raji cells (human) (UniProt P20273). Description: FACS, Raji cells.
For assay [8], the target named is human CD22, full length, on CHO-K1-human CD22 2C4 cells (human) (UniProt P20273). The assay is described as follows: FACS, CHO-K1-human CD22 2C4 cells.
Chain of human CD22, full length, on CHO-K1-human CD22 2C4 cells (human) (P20273 20-847 limits assumed): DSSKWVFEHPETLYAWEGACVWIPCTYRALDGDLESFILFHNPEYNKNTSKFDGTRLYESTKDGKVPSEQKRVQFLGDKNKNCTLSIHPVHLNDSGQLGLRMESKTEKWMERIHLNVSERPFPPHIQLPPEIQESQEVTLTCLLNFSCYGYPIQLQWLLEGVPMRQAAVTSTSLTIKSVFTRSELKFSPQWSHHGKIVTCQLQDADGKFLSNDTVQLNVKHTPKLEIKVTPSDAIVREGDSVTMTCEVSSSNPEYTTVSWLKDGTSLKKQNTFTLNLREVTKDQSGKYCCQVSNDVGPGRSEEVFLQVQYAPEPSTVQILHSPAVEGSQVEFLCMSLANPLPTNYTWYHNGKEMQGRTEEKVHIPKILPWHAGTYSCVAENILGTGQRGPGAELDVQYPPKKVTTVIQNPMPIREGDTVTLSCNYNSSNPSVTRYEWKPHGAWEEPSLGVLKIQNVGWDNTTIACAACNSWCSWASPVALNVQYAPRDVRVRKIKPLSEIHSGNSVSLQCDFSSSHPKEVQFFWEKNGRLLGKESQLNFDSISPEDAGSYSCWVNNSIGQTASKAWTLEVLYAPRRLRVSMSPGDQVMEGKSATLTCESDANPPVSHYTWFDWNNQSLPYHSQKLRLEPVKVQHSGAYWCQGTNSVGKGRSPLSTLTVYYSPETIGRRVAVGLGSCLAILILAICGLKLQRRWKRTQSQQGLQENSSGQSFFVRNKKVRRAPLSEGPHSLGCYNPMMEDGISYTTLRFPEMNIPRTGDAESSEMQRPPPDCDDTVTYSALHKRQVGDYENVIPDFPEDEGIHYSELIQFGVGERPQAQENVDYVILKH

Chain of human CD22 (full length, on cells) (human) (P20273 20-847 limits assumed): as above
Chain of monkey CD22 on HEK293T-monkey CD22 cells (monkey) (chain, as listed by the source limits assumed): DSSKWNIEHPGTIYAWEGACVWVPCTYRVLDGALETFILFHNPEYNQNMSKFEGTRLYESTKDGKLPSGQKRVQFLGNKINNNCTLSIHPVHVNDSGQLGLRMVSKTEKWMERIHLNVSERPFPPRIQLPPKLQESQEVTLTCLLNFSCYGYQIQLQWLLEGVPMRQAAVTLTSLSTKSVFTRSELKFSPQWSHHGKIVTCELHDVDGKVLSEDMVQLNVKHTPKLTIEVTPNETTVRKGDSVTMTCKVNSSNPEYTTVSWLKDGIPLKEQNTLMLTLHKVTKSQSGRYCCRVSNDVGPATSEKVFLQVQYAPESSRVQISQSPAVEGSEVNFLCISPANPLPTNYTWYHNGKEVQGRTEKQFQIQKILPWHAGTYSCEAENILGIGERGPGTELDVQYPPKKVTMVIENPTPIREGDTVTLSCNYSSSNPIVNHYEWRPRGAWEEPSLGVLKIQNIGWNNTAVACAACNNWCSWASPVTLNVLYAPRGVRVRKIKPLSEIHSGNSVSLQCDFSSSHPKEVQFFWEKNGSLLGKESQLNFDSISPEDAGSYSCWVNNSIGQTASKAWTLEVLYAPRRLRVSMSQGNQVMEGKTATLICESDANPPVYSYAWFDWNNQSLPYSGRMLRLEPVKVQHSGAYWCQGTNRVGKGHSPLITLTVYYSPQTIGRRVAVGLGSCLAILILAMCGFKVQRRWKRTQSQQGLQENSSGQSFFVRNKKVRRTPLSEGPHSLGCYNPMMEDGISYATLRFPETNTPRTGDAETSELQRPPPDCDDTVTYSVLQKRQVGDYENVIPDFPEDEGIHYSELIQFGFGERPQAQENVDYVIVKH
Chain of human CD22, endogenous on Raji cells (human) (P20273 20-847): as the sequence (P20273 20-847 limits assumed) above

For IgG subtype control (antibody), the Cell mean fluorescence intensity in assay [1], in assay [2] and in assay [5] was 66 MFI throughout. In addition, the Cell mean fluorescence density in assay [3] and in assay [4] was 44 MFI throughout.

Take anti-hel-hIgG1 (antibody): the Maximum mean fluorescence intensity in assay [6] stood at 129 MFI.

With “anti-hel-hIgG1 (negative control antibody against chicken egg lysozyme)”, the Maximum mean fluorescence intensity in assay [7] was determined as 564 MFI; in assay [8] it was 150 MFI.
